Data reported in publication PMC5300155, “Biochemical and biophysical investigations of the interaction between human glucokinase and pro-apoptotic BAD” (PLoS ONE, 2017).

T1: human pancreatic GCK (Homo sapiens, UniProt P35557)
T1 construct: hexahistidine (N); made in house; host or cells: glucokinase auxotroph BM5340(DE3)
T1 sequence (P35557 1-465): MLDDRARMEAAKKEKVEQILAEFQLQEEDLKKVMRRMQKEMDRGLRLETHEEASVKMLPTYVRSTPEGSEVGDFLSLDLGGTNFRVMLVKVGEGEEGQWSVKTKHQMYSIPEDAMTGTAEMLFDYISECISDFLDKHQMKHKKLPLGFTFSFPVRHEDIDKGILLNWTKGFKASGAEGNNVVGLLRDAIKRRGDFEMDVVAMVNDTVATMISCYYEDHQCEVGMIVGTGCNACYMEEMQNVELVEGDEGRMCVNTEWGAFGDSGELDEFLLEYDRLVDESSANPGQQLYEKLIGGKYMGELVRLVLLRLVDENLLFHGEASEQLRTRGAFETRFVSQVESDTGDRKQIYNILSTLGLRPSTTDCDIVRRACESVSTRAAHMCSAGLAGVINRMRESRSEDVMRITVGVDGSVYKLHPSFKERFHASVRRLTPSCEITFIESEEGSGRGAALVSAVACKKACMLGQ


Legend:
[1] = biological target: recombinant human Bcl-xL, Δ45–84, Δ210–233 variant (human) (UniProt Q07817); test: fluorescence polarisation; competition: 200 nM f-BH3, 50 nM Bcl-xL, BAD forms varied 0–50 μM; room temperature
[2] = biological target: T2, recombinant human Bcl-xL, Δ45–84, Δ210–233 variant (human, UniProt Q07817-1 1-209, Δ45–84); test: as above; conditions: both partners purified
T2 construct: Bcl-xL, human; loop 45-84 deleted and C-terminal residues 210-233 lacking; also called soluble, recombinant Bcl-xL

human pancreatic GCK = biological target: T1, human pancreatic GCK; test: GCK activity, G6PDH-linked assay (lab's routine assay, 25°C); type: biochemical; conditions: for Increase in GCK activity relative to unmodified / wild-type protein: only at glucose concentrations below K0.5 (3SD, 3SA), phosphorylated BAD after cleavage of GST tag
Description: Recombinant human pancreatic GCK containing an N-terminal hexahistidine tag was produced in the glucokinase auxotroph BM5340(DE3) and purified using a previously described procedure. TEV protease was expressed as a GST-fusion protein from a pGEX plasmid encoding the S219V variant, provided by David Waugh (Addgene plasmid 8827). Expression was induced with IPTG (1 mM) for 4 h at 30°C. Cell pellets were resuspended in Tris buffer (50 mM, pH 8.0) containing NaCl (100 mM), glycerol (10% v/v), benzamidine (1 mM) and dithiothreitol (10 mM) and lysed via French Press. Polyethyleneimine (0.1%) was added to the lysate and protein was purified on a glutathione-affinity column (GSTrap, GE Sciences). TEV protease was flash frozen and stored at -80°C for up to 1 month.
GCK activity was assayed using a glucose 6-phosphate dehydrogenase (G6PDH)-linked assay at 25°C. 50 nM GCK was assayed in buffer containing HEPES (100 mM, pH 7.4), KCl (50 mM), NADP^+ (0.5 mM), DTT (10 mM), MgCl2 (7 mM), G6PDH (1.5 U) and glucose (0–100 mM) in a total volume of […]. Addition of ATP (6 mM) initiated the reaction. Production of NADPH was measured at 340 nm. To determine the effect of BAD on GCK activity, 5 μL of BAD or buffer control was added to the reaction in a final volume of 100 μL. K0.5 values were determined by fitting to the Hill equation. The effect of BAD on GCK activity is reported as the percent rate increase at individual glucose concentrations, calculated as the average of a minimum of four rates of BAD-containing assays divided by the average of rates of BAD buffer-containing assays. The results represent the average of at least three independent preparations of pure BAD.

T2 sequence (Q07817 other isoform, or with tags, fused parts or gaps Δ45–84 | Δ45–84 | mutant): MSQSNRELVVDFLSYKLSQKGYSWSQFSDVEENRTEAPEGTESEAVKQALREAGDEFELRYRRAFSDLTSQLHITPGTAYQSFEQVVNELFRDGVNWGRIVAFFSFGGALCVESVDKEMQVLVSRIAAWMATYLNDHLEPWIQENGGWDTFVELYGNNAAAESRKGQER
Chain of recombinant human Bcl-xL, Δ45–84, Δ210–233 variant (human) (Q07817 other isoform, or with tags, fused parts or gaps mutant): as the sequence (Q07817 other isoform, or with tags, fused parts or gaps Δ45–84 | Δ45–84 | mutant) above

Molecule	IC50 [2] [nM]	Increase in GCK activity relative to unmodified / wild-type protein (human pancreatic GCK)	further results
BAD following cleavage and removal of the GST tag (from UniProt Q92934 1-168) (natural protein)			IC50 [1]: 440 nM
S75D-S99D-S118D triple variant of BAD-GST (natural protein, human, UniProt Q92934 1-168, looked up, BAD, human; 507 bp bad cDNA amplified from the IMAGE clone; triple phosphomimic; also called 3SD; source: E. coli BL21(DE3), purified as BAD-GST; not shown: GST, C-terminal, kept) MFQIPEFEPSEQEDSSSAERGLGPSPAGDGPSGSGKHHRQAPGLLWDASHQQEQPTSSSHHGGAGAVEIRSRHSDYPAGTEDDEGMGEEPSPFRGRSRDAPPNLWAAQRYGRELRRMDDEFVDSFKKGLPRPKSAGTATQMRQSSSWTRVFQSWWDRNLGRGSSAPSQ	> 19000		
3SA: BAD-GST variant in which alanine was substituted at the three target serine residues (protein, left off: His6, N-terminal, state not stated | GST, C-terminal, kept, BAD-GST variant in which alanine was substituted at the three target serine residues) MFQIPEFEPSEQEDSSSAERGLGPSPAGDGPSGSGKHHRQAPGLLWDASHQQEQPTSSSHHGGAGAVEIRSRHSAYPAGTEDDEGMGEEPSPFRGRSRAAPPNLWAAQRYGRELRRMADEFVDSFKKGLPRPKSAGTATQMRQSSSWTRVFQSWWDRNLGRGSSAPSQ		to the same relative extent as wild-type BAD-GST	
S75D-S99D-S118D triple variant of BAD-GST: S75D-S99D-S118D triple variant of BAD-GST, mimics fully phosphorylated protein (protein, left off: His6, N-terminal, state not stated | GST, C-terminal, kept, S75D-S99D-S118D triple variant of BAD-GST, mimics fully phosphorylated protein) MFQIPEFEPSEQEDSSSAERGLGPSPAGDGPSGSGKHHRQAPGLLWDASHQQEQPTSSSHHGGAGAVEIRSRHSDYPAGTEDDEGMGEEPSPFRGRSRDAPPNLWAAQRYGRELRRMDDEFVDSFKKGLPRPKSAGTATQMRQSSSWTRVFQSWWDRNLGRGSSAPSQ		to the same relative extent as wild-type BAD-GST	Activation of GCK by triple variant (human pancreatic GCK; 0.78 mM glucose, > 2 μM, comparable to phosphorylated BAD (15%)): A comparable degree of activation
phosphorylated BAD: phosphorylated BAD after cleavage of the GST tag (protein, phosphoserine at 75, 99 and 118 (by PKA, as for phosphorylated BAD-GST); left off: His6, N-terminal, state not stated | GST, C-terminal, cleaved, phosphorylated BAD after cleavage of the GST tag) MFQIPEFEPSEQEDSSSAERGLGPSPAGDGPSGSGKHHRQAPGLLWDASHQQEQPTSSSHHGGAGAVEIRSRHSSYPAGTEDDEGMGEEPSPFRGRSRSAPPNLWAAQRYGRELRRMSDEFVDSFKKGLPRPKSAGTATQMRQSSSWTRVFQSWWDRNLGRGSSAPSQ		to a similar extent as unmodified BAD	
S75D-S99D double variant of BAD-GST (natural protein, human, UniProt Q92934 1-168, looked up, BAD, human; 507 bp bad cDNA amplified from the IMAGE clone; double phosphomimic; source: E. coli BL21(DE3), purified as BAD-GST; not shown: GST, C-terminal, kept) MFQIPEFEPSEQEDSSSAERGLGPSPAGDGPSGSGKHHRQAPGLLWDASHQQEQPTSSSHHGGAGAVEIRSRHSDYPAGTEDDEGMGEEPSPFRGRSRDAPPNLWAAQRYGRELRRMSDEFVDSFKKGLPRPKSAGTATQMRQSSSWTRVFQSWWDRNLGRGSSAPSQ	87		
S118D BAD-GST variant (natural protein, human, UniProt Q92934 1-168, looked up, BAD, human; 507 bp bad cDNA amplified from the IMAGE clone; phosphomimic; also called S118D variant; BAD-GST S118D; source: E. coli BL21(DE3), purified as BAD-GST; not shown: GST, C-terminal, kept) MFQIPEFEPSEQEDSSSAERGLGPSPAGDGPSGSGKHHRQAPGLLWDASHQQEQPTSSSHHGGAGAVEIRSRHSSYPAGTEDDEGMGEEPSPFRGRSRSAPPNLWAAQRYGRELRRMDDEFVDSFKKGLPRPKSAGTATQMRQSSSWTRVFQSWWDRNLGRGSSAPSQ	> 15000		
